Source: IntAct's records for PubMed 28258151

What follows are substances tested against cfah_human CFH (UniProt P08603).
Sequence of cfah_human CFH (P08603 whole entry): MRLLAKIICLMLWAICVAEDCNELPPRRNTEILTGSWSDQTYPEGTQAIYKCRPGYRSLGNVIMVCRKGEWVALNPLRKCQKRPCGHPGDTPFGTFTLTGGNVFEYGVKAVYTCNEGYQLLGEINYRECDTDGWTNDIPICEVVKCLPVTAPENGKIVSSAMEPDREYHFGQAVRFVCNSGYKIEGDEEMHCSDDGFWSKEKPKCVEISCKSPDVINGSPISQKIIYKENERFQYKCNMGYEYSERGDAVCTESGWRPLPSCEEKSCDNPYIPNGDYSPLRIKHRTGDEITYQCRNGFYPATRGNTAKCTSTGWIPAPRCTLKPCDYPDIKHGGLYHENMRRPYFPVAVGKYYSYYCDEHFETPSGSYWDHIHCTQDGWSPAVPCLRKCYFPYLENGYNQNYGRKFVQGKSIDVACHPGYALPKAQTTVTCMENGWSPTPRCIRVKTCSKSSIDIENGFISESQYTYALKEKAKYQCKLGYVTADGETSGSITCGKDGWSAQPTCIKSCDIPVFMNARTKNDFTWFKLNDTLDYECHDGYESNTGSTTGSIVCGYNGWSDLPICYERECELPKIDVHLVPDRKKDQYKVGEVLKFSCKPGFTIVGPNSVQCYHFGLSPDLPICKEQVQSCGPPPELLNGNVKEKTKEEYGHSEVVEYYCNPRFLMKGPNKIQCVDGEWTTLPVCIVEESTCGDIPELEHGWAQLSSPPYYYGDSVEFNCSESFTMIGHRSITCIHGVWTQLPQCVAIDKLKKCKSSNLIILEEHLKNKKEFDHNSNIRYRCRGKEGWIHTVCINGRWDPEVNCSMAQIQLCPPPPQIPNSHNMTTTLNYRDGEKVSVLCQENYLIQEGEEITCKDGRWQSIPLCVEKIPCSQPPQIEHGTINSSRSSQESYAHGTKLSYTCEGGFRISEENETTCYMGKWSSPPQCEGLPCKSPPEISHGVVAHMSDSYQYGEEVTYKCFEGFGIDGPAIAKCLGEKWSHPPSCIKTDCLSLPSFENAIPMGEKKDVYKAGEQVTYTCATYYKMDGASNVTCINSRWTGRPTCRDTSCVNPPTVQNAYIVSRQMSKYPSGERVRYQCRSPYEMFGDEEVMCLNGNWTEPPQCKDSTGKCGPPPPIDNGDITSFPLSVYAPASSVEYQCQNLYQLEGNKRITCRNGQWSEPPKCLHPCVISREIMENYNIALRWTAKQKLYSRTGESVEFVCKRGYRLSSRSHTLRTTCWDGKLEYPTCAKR
For “Serine-aspartate repeat-containing protein E (Staphylococcus aureus (strain Mu50 / ATCC 700699)), Q932F7 D334A”, the “effect of a mutation on the interaction” value was “decreasing interaction”.
In the case of “Serine-aspartate repeat-containing protein E (Staphylococcus aureus (strain Mu50 / ATCC 700699)), Q932F7 Q419A”, the “effect of a mutation on the interaction” value is reported as “decreasing interaction”.
“Serine-aspartate repeat-containing protein E (Staphylococcus aureus (strain Mu50 / ATCC 700699)), Q932F7 D588A” was tested, and the “effect of a mutation on the interaction” value was “disrupting interaction”.
With “Serine-aspartate repeat-containing protein E (Staphylococcus aureus (strain Mu50 / ATCC 700699)), Q932F7 L335A” the “effect of a mutation on the interaction” value was “decreasing interaction”.
